Measurements taken from IntAct's records for PubMed 30126976.

B1: Ribosomal protein S6 kinase alpha-2 (Homo sapiens), Q15349 (parent)
chain: MDLSMKKFAVRRFFSVYLRRKSRSKSSSLSRLEEEGVVKEIDISHHVKEGFEKADPSQFELLKVLGQGSYGKVFLVRKVKGSDAGQLYAMKVLKKATLKVRDRVRSKMERDILAEVNHPFIVKLHYAFQTEGKLYLILDFLRGGDLFTRLSKEVMFTEEDVKFYLAELALALDHLHSLGIIYRDLKPENILLDEEGHIKITDFGLSKEAIDHDKRAYSFCGTIEYMAPEVVNRRGHTQSADWWSFGVLMFEMLTGSLPFQGKDRKETMALILKAKLGMPQFLSGEAQSLLRALFKRNPCNRLGAGIDGVEEIKRHPFFVTIDWNTLYRKEIKPPFKPAVGRPEDTFHFDPEFTARTPTDSPGVPPSANAHHLFRGFSFVASSLIQEPSQQDLHKVPVHPIVQQLHGNNIHFTDGYEIKEDIGVGSYSVCKRCVHKATDTEYAVKIIDKSKRDPSEEIEILLRYGQHPNIITLKDVYDDGKFVYLVMELMRGGELLDRILRQRYFSEREASDVLCTITKTMDYLHSQGVVHRDLKPSNILYRDESGSPESIRVCDFGFAKQLRAGNGLLMTPCYTANFVAPEVLKRQGYDAACDIWSLGILLYTMLAGFTPFANGPDDTPEEILARIGSGKYALSGGNWDSISDAAKDVVSKMLHVDPHQRLTAMQVLKHPWVVNREYLSPNQLSRQDVHLVKGAMAATYFALNRTPQAPRLEPVLSSNLAQRRGMKRLTSTRL
B2: Peroxiredoxin-5, mitochondrial (Homo sapiens), P30044 (parent)
chain: MGLAGVCALRRSAGYILVGGAGGQSAAAAARRYSEGEWASGGVRSFSRAAAAMAPIKVGDAIPAVEVFEGEPGNKVNLAELFKGKKGVLFGVPGAFTPGCSKTHLPGFVEQAEALKAKGVQVVACLSVNDAFVTGEWGRAHKAEGKVRLLADPTGAFGKETDLLLDDSLVSIFGNRRLKRFSMVVQDGIVKALNVEPDGTGLTCSLAPNIISQL
B3: Olfactory receptor 5F1 (Homo sapiens), O95221 (parent)
chain: MTRKNYTSLTEFVLLGLADTLELQIILFLFFLVIYTLTVLGNLGMILLIRIDSQLHTPMYFFLANLSFVDVCNSTTITPKMLADLLSEKKTISFAGCFLQMYFFISLATTECILFGLMAYDRYAAICRPLLYSLIMSRTVYLKMAAGAFAAGLLNFMVNTSHVSSLSFCDSNVIHHFFCDSPPLFKLSCSDTILKESISSILAGVNIVGTLLVILSSYSYVLFSIFSMHSGEGRHRAFSTCASHLTAIILFYATCIYTYLRPSSSYSLNQDKVASVFYTVVIPMLNPLIYSLRSKEVKKALANVISRKRTSSFL
B4: Copine-8 (Homo sapiens), Q86YQ8 (parent)
chain: MDSRYNSTAGIGDLNQLSAAIPATRVEVSVSCRNLLDRDTFSKSDPICVLYVQGVGNKEWREFGRTEVIDNTLNPDFVRKFILDYFFEERENLRFDLYDVDSKSPNLSKHDFLGQVFCTLGEIVGSQGSRLEKPIVGIPGKKCGTIILTAEELNCCRDAVLMQFCANKLDKKDFFGKSDPFLVFYRSNEDGSFTICHKTEVVKNTLNPVWQAFKISVRALCNGDYDRTIKVEVYDWDRDGSHDFIGEFTTSYRELSRGQSQFNVYEVVNPKKKGKKKKYTNSGTVTLLSFLVETEVSFLDYIKGGTQINFTVAIDFTASNGNPAQPTSLHYMNPYQLNAYGMALKAVGEIVQDYDSDKMFPALGFGAKLPPDGRISHEFALNGNPQNPYCDGIEGVMEAYYRSLKSVQLYGPTNFAPVINHVARYASSVKDGSQYFVLLIVTDGVISDMAQTKESIVNASKLPMSIIIVGVGPAEFDAMVELDGDDVRVSSRGKYAERDIVQFVPFRDYIDRSGNHILSMARLAKDVLAEIPEQFLSYMRARGIKPSPAPPPYTPPTHVLQTQI
B5: FERM and PDZ domain-containing protein 1 (Homo sapiens), Q5SYB0 (parent)
chain: MEELETSLFQTRKAHRIEQMVARWLRRSRDSSARAKVAAADGPARNPTQTLIPVRHTVKIDKDTLLQDYGFHISESLPLTVVAVTAGGSAHGKLFPGDQILQMNNEPAEDLSWERAVDILREAEDSLSITVVRCTSGVPKSSFLTEEKRARLKTNPVKVHFAEEVLISGHSQGNSLLCMPNVLKLYLENGQTKAFKFEANTTVKDIILTVKEKLSIRSIEYFALALEEQYSISRLHLLHEEELIQQVVEREESHDYRCLFRVCFVPKDPLDLLKEDPVAFEYLYLQSCSDVLQERFAVEMKCSSALRLAALHIQERIYACAQPQKISLKYIEKDWGIENFISPTLLRNMKGKDIKKAISFHMKRNQNLLEPRQKQLISAAQLRLNYLQILGELKTYGGRIFNATLMLQDRESYIALLVGAKYGISQVINSKLNIMSTLAEFANISRVELTEESEKVSVVKVYLQDVKVLTLLLESNSAKDLACLIAGYYRLLVDPVTSIFLWPGNKQQAHRVSAEEGYESRACSDSEESSEVDCVLEPLSDRRLVKLAPCRSLIKEEQPPGNSPTPEVARRGPSTCGASSTTDSAESEASDSANTESRGYRTSGSSESMDALEEDDLDTCSSSRSTFFHFGSPGLAESIDSDSQEERSGIETSGFLCLLDLAQRANPQCQKTEFSESAALETFGWAPELSTVRLDPRLYEGSHADYYSLCSSVSPASYLSDSSESTASRQGGAPPAWGQQGWTEAQPSSMLEPLALHPPLAFEDGSSDEEYYDAADKLTPPGPPSGPRDVSTAEPSATSLQNKASTSSPENSLPCGPDGRQPSRRGGVKKYAKTLRKRRSFLQTDYTSQVSFPLVPSASLESVDDVCYYDREPYLALGAPSPTVSSLQDMQGEPGLLETKALGLLAPLRETKSTNPASRVMEMEPETMETKSVIDSRVSSISAIRFRIDPNNKENSGVVPAASSSASTPHCSNPGSSGPDTAQARPSQILPLSQDLDGIAPKEPTIEHGDSSFSLSSGDPNPDRACLASNPGLNNVSQGDTLELQLEPHVQLEMGLESFCTNHIQETAPKYTEPLLSPRDEPRSDECGINPGEKIASIPTKEEPQGQLSLERDREVTNKNGTNVFQEESRKDSGDSPGDVSNNVSQTLDISSPAGKIVTSLSLDAPVTGTEQIPPHPPRDPQGQSREPPGQGCQAQEQKLFVELDLDPDFFLGKQTVSPAVPPEGIKAEAPNHVTGQDIAPRDSPEWVCFNPEPSLPEPLPCPQEDPHLETSNHCLLSEGKSDSSSICLSAEKSFLCFAPESHPEVSASLRVATSLGFAGMNEMVAPRIGMDQCSCQFSYATCFRGPQPETEEEDRDLEAHPMAPLTSPPSAGSPVVLPWRPARAHSCTTAPLSRKSHIWPEYCSRALRQLKATPASTPEGFIQLMESLLELQDILETSWGVGNKHPPEKCTWHFTESRSRLCMGSQKLLSSCRHVIRMDQSPEEMQGAVRDTFQHLVQLAGLCFQFTDCSRCSARHREAAGNLRDVVYTYHQFIEAAKSTCERGYHDLSVKLLARQCTALTAAVFCLTQKFRASTAL
B6: Disintegrin and metalloproteinase domain-containing protein 22 (Homo sapiens), Q9P0K1 (parent)
chain: MQAAVAVSVPFLLLCVLGTCPPARCGQAGDASLMELEKRKENRFVERQSIVPLRLIYRSGGEDESRHDALDTRVRGDLGGPQLTHVDQASFQVDAFGTSFILDVVLNHDLLSSEYIERHIEHGGKTVEVKGGEHCYYQGHIRGNPDSFVALSTCHGLHGMFYDGNHTYLIEPEENDTTQEDFHFHSVYKSRLFEFSLDDLPSEFQQVNITPSKFILKPRPKRSKRQLRRYPRNVEEETKYIELMIVNDHLMFKKHRLSVVHTNTYAKSVVNMADLIYKDQLKTRIVLVAMETWATDNKFAISENPLITLREFMKYRRDFIKEKSDAVHLFSGSQFESSRSGAAYIGGICSLLKGGGVNEFGKTDLMAVTLAQSLAHNIGIISDKRKLASGECKCEDTWSGCIMGDTGYYLPKKFTQCNIEEYHDFLNSGGGACLFNKPSKLLDPPECGNGFIETGEECDCGTPAECVLEGAECCKKCTLTQDSQCSDGLCCKKCKFQPMGTVCREAVNDCDIRETCSGNSSQCAPNIHKMDGYSCDGVQGICFGGRCKTRDRQCKYIWGQKVTASDKYCYEKLNIEGTEKGNCGKDKDTWIQCNKRDVLCGYLLCTNIGNIPRLGELDGEITSTLVVQQGRTLNCSGGHVKLEEDVDLGYVEDGTPCGPQMMCLEHRCLPVASFNFSTCLSSKEGTICSGNGVCSNELKCVCNRHWIGSDCNTYFPHNDDAKTGITLSGNGVAGTNIIIGIIAGTILVLALILGITAWGYKNYREQRQLPQGDYVKKPGDGDSFYSDIPPGVSTNSASSSKKRSNGLSHSWSERIPDTKHISDICENGRPRSNSWQGNLGGNKKKIRGKRFRPRSNSTETLSPAKSPSSSTGSIASSRKYPYPMPPLPDEDKKVNRQSARLWETSI
B7: FAST kinase domain-containing protein 5, mitochondrial (Homo sapiens), Q7L8L6 (parent)
chain: MAATLKSLKLVRYRAFCSPSAFGAVRSVSYWNVSSTQHGGQDPPEHISLCHSAKKVKNICSTFSSRRILTTSSAHPGLEFSKTSSSKASTLQLGSPRATGVDEEDVEVFDSFENMRVFLQLRPEYRVHSYNASETSQLLSVSEGELILHKVRVNQNNLQAQVIVDYLCKLSSLPAEQHPVLLGSTSFALLCQLSVKKIQLFDTQDLINVLKAFVILGIPHSHSMLDVYETKCCHQVWEMNMDQLLLVADLWRYLGRKVPRFLNIFSSYLNLHWKDLSLSQLVHLIYVIGENRQVSQDLMQKLESLILKYIDLINLEEVGTICLGFFKSSTNLSEFVMRKIGDLACANIQHLSSRSLVNIVKMFRFTHVDHINFMKQIGEIAPQRIPSLGVQGVMHLTLYCSALRFLNEGVMNAVAASLPPRVAHCRSKDVAKILWSFGTLNYKPPNAEEFYSSLISEIHRKMPEFNQYPEHLPTCLLGLAFLEYFPVELIDFALSPGFVRLAQERTKFDLLKELYTLDGTVGIECPDYRGNRLSTHLQQEGSELLWYLAEKDMNSKPEFLETVFLLETMLGGPQYVKHHMILPHTRSSDLEVQLDVNLKPLPFNREATPAENVAKLRLEHVGVSLTDDLMNKLLKGKARGHFQGKTESEPGQQPMELENKAAVPLGGFLCNVADKSGAMEMAGLCPAACMQTPRMKLAVQFTNRNQYCYGSRDLLGLHNMKRRQLARLGYRVVELSYWEWLPLLKRTRLEKLAFLHEKVFTSAL

Variants of: B1
Conditions: with scrib_human SCRIB
Target sequence in this assay (Q14160 whole entry): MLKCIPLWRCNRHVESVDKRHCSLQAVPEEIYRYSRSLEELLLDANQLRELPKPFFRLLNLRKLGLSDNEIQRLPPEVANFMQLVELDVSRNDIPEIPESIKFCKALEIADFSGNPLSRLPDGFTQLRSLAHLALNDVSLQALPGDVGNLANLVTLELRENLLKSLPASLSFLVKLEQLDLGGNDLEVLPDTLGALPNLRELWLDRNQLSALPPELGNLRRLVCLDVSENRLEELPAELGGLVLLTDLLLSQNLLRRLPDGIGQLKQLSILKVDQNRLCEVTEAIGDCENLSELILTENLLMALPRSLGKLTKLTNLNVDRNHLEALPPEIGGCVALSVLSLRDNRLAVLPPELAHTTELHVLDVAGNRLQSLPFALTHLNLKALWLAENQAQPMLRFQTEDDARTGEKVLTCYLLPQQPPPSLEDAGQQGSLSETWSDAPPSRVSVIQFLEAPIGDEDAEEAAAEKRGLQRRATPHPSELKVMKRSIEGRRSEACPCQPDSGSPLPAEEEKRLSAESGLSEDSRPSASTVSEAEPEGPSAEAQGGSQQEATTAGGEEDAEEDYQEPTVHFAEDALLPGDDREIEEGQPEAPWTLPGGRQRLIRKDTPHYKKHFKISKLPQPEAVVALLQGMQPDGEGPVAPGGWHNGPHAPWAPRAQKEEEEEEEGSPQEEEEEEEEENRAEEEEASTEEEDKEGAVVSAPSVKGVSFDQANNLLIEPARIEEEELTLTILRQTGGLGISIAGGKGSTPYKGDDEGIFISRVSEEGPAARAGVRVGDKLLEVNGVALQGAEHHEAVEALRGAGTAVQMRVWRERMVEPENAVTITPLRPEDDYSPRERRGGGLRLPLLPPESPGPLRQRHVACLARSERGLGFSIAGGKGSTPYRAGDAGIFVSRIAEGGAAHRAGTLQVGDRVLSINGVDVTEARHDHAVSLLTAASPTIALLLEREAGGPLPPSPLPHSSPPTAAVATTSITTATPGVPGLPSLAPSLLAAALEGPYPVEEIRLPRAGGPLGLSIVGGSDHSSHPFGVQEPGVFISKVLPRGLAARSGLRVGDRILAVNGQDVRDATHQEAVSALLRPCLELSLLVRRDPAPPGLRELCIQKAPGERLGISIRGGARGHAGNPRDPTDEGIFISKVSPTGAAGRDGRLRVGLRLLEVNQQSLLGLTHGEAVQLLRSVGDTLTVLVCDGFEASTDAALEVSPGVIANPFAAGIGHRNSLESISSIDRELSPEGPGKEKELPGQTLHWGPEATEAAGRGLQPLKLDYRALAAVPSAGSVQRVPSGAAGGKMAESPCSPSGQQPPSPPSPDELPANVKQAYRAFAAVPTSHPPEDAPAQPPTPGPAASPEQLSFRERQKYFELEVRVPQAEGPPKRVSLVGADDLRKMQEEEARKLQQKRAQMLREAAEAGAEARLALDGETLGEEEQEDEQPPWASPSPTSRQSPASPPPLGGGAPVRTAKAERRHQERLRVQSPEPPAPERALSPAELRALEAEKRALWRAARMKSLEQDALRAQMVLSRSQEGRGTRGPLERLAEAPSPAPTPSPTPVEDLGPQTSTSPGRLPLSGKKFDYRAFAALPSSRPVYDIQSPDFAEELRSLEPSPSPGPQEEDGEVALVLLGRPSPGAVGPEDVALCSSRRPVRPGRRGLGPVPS

| effect of a mutation on the interaction | Variant |
| --- | --- |
| with no effect | S730A |

Variants of: B2
Conditions: with scrib_human SCRIB
Target sequence in this assay (Q14160 whole entry): as above

| effect of a mutation on the interaction | Variant |
| --- | --- |
| with no effect | MGLAGVCALRRSAGYILVGGAGGQSAAAAARRYSEGEWASGGVRSFSRAAAAMAPIKVGDAIPAVEVFEGEPGNKVNLAELFKGKKGVLFGVPGAFTPGCSKTHLPGFVEQAEALKAKGVQVVACLSVNDAFVTGEWGRAHKAEGKVRLLADPTGAFGKETDLLLDDSLVSIFGNRRLKRFSMVVQDGIVKALNVEPDGTGLTCSLAPNIIEQL [S212E] |

Variants of: B3
Conditions: with scrib_human SCRIB
Target sequence in this assay (Q14160 whole entry): as the sequence (Q14160 whole entry) above

| effect of a mutation on the interaction | Variant |
| --- | --- |
| causing an interaction | MTRKNYTSLTEFVLLGLADTLELQIILFLFFLVIYTLTVLGNLGMILLIRIDSQLHTPMYFFLANLSFVDVCNSTTITPKMLADLLSEKKTISFAGCFLQMYFFISLATTECILFGLMAYDRYAAICRPLLYSLIMSRTVYLKMAAGAFAAGLLNFMVNTSHVSSLSFCDSNVIHHFFCDSPPLFKLSCSDTILKESISSILAGVNIVGTLLVILSSYSYVLFSIFSMHSGEGRHRAFSTCASHLTAIILFYATCIYTYLRPSSSYSLNQDKVASVFYTVVIPMLNPLIYSLRSKEVKKALANVISRKRTESFL [S311E] |

Variants of: B4
Conditions: with scrib_human SCRIB
Target sequence in this assay (Q14160 whole entry): as the sequence (Q14160 whole entry) above

| effect of a mutation on the interaction | Variant |
| --- | --- |
| causing an interaction | MDSRYNSTAGIGDLNQLSAAIPATRVEVSVSCRNLLDRDTFSKSDPICVLYVQGVGNKEWREFGRTEVIDNTLNPDFVRKFILDYFFEERENLRFDLYDVDSKSPNLSKHDFLGQVFCTLGEIVGSQGSRLEKPIVGIPGKKCGTIILTAEELNCCRDAVLMQFCANKLDKKDFFGKSDPFLVFYRSNEDGSFTICHKTEVVKNTLNPVWQAFKISVRALCNGDYDRTIKVEVYDWDRDGSHDFIGEFTTSYRELSRGQSQFNVYEVVNPKKKGKKKKYTNSGTVTLLSFLVETEVSFLDYIKGGTQINFTVAIDFTASNGNPAQPTSLHYMNPYQLNAYGMALKAVGEIVQDYDSDKMFPALGFGAKLPPDGRISHEFALNGNPQNPYCDGIEGVMEAYYRSLKSVQLYGPTNFAPVINHVARYASSVKDGSQYFVLLIVTDGVISDMAQTKESIVNASKLPMSIIIVGVGPAEFDAMVELDGDDVRVSSRGKYAERDIVQFVPFRDYIDRSGNHILSMARLAKDVLAEIPEQFLSYMRARGIKPSPAPPPYTPPEHVLQTQI [T557E] |

Variants of: B5
Conditions: with scrib_human SCRIB
Target sequence in this assay (Q14160 whole entry): as the sequence (Q14160 whole entry) above

| effect of a mutation on the interaction | Variant |
| --- | --- |
| increasing interaction strength | S1575E |

Variants of: B6
Conditions: with scrib_human SCRIB
Target sequence in this assay (Q14160 whole entry): as the sequence (Q14160 whole entry) above

| effect of a mutation on the interaction | Variant |
| --- | --- |
| decreasing interaction strength | S898E |

Variants of: B7
Conditions: with scrib_human SCRIB

| effect of a mutation on the interaction | Variant |
| --- | --- |
| causing an interaction | T761E |

Variants of: B7
Conditions: with scrib_human SCRIB
Remark: another data set of the same source

| effect of a mutation on the interaction | Variant |
| --- | --- |
| increasing interaction strength | T761E |
